± gives the uncertainty stated by the source.
Experiment: amyloid nucleation score (Sup35N fusion, yeast selection) (log enrichment); library NNK1; higher = more nucleation; inactive = no reads after selection
Outline: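 Output and input plasmid inserts were sequenced by Illumina after psi-negative yeast carrying Sup35N fused to peptides of 20 random codons had been induced 24 hours with 100 μM copper sulfate and grown 7 days at 30°C on medium lacking adenine and uracil. The nucleation score is the DiMSum log enrichment of output over input reads, centred on the mode score of non-aggregating sequences. Sequences with under 100 input reads were excluded.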

| Substance | amyloid nucleation score |
| --- | --- |
| NLLHESCRVLYS | 0.398 ± 0.5 |
| RTILISAGAKCVNLMMLDSV | 1.6 ± 0.29 |
| VLVGCLASQRVISENKGCKC | 0.722 ± 0.81 |
| LFFMVLFNKSTEFERLFHIV | -0.633 ± 0.56 |
| TVYIG | 0.258 ± 0.3 |
| NFICLHQNNMLISPKGTATR | 0.672 ± 0.31 |
| NLFVKFLNSRRCINFMTMFD | -0.01 ± 0.77 |
| NGCLQRKNWLVSGSFLHFVD | -0.295 ± 0.72 |
| ETSGSPFILIICIYELNVVM | 4.61 ± 0.07 |
| WRARLWDLNPWHVAREMIAG | 0.096 ± 0.93 |
| INTCCIRCFRQYGNFNKIKT | 0.662 ± 1.1 |
| EVQSDSSEVRDTEYMDISSW | inactive |
| SRVSNCISLVMYKAKLCSIR | 0.644 ± 0.5 |
| FSNARWASRSLKSARMACVA | 0.554 ± 0.81 |
| MRCISYIYEHAL | 0.567 ± 0.66 |
| TIMVVWCSGKDGSQVTWMQF | 0.324 ± 0.34 |
| PGSGCNVFKL | -0.403 ± 0.25 |
| NQDMVNMIHETFIVLARVVI | -0.059 ± 0.38 |
| FRNTERGEFNVVYGSPGFSR | 0.751 ± 0.51 |
| ESAHNWWNPVSSYL | 1.06 ± 0.58 |
| VEIPHKKWNYVSHLLLSIHG | 0.307 ± 0.3 |
| TCRKFKYPL | 0.372 ± 0.29 |
| FYVGDVITHHWEAELNYSDV | -0.573 ± 1.7 |
| MLRMLAVQCFSSCIARLD | 2.05 ± 0.3 |
| EVNLHLGCVWLVRLCVSDDG | 2.08 ± 0.19 |

| Substance | amyloid nucleation score |
| --- | --- |
| PVGWGNTACSLRCTGHVSYV | -0.604 ± 1.7 |
| VRKYRRWSRMIWGCYNNFVF | -1.44 ± 0.53 |
| HCIWKMLNLFSSLRLSIKLI | -2.16 ± 2.4 |
| ARYSRRRKVMSLLVTGEMDA | -0.038 ± 0.44 |
| TLHKFCLSGVHSFVGVTNST | 0.06 ± 0.46 |
| EFVGVGNIVPFTTSWLIMGR | 0.271 ± 0.2 |
| SNCLDMTVTAW | inactive |
| DGASMSKRPPRVILKLGIFD | 0.054 ± 0.33 |
| VFYQLCDWYNFGF | 5.68 ± 0.1 |
| LQSAVRWWHFDSRLGEAKLM | 0.902 ± 0.69 |
| GSELCGVGARSQDSRIAGRV | -0.282 ± 0.49 |
| SVGFDDGPRSGTLNGFVSRR | -0.262 ± 0.6 |
| ALCLSRARSSG | -0.152 ± 0.68 |
| LGTLNAGHTRDVDGAMGYVW | 0.252 ± 1.1 |
| KLHDGFL | -0.96 ± 2.7 |
| GVMSTDPFLTLYTVLVGVLI | inactive |
| VSAND | -0.547 ± 0.4 |
| SMEIYLDFMNVCSKMVNASG | -0.093 ± 0.3 |
| TAGRVITSCWQVLILLVNCG | -0.605 ± 0.54 |
| TLRHALLRQTLSNLRQDGV | -0.009 ± 0.3 |
| LFRWVLLFFVRT | inactive |
| LTSTDISMGRCAVHQSYLFK | 2.69 ± 0.29 |
| CYVNLTFPVLVEACTASFTD | 6.722 ± 0.055 |
| FNYVICYSLCVVFWARRWCN | 1.75 ± 0.14 |
| NGRENWSDETGSMFECALYS | 1.28 ± 0.44 |

| Substance | amyloid nucleation score |
| --- | --- |
| VSSFLLRSFRKCRPLCYIVR | 3.89 ± 0.085 |
| DRFRRTNAIGLVHMDSGKG | 0.907 ± 0.39 |
| SRSGSLKCRGAQGFTCY | 0.564 ± 0.52 |
| LWVTRRPVGGFMW | 0.721 ± 0.79 |
| YWWDIRWGEAGSRERRVELG | 0.078 ± 0.53 |
| TASRYLVVRN | 0.875 ± 0.43 |
| YDNRSALDWCLGEVMFAST | -0.993 ± 0.35 |
| LDDLPTILGVSEHSRSFVKV | -0.324 ± 0.61 |
| GIHNFEGGMTLWLLLFSQRS | 0.24 ± 1.2 |
| KDVVISVGGMSVVLFSSRPH | 4.52 ± 0.091 |
| LHPVLALPAFNVDRNSMPC | -0.335 ± 0.52 |
| SFAHHAFIGFILSSWWN | -1.06 ± 2.4 |
| LDLMVVCFKGIRGFEKMIGG | 1.5 ± 0.31 |
| SYGMSYSVVWNWCECNSA | 5.23 ± 0.053 |
| IALSTYCRNTDSPSSSGSCY | -0.245 ± 0.77 |
| DYFLCKFSTDDPCLVFISWE | inactive |
| VDLVGYVVGIFNVYKVVEDT | -0.321 ± 0.23 |
| HDFRFIGSWHLTYGPSVTTT | -0.471 ± 0.49 |
| RNIPGFVETVINGSCGALLT | 0.636 ± 0.52 |
| SYVVTVLHNWVWEEGDLEYE | 4.36 ± 0.11 |
| LIYPGIVDFVFSDARQGCSR | 1.08 ± 0.69 |
| MYHLSGVSYMFSLCSDCRRL | 8.122 ± 0.066 |
| LQAAGLRFGRICLFLDK | -0.259 ± 1.2 |
| NLVRLILRCSDRAKRFLRAL | -0.218 ± 0.36 |
| YWIFFNT | 3.16 ± 0.13 |

| Substance | amyloid nucleation score |
| --- | --- |
| NHSLMGVSTSFWI | -0.334 ± 0.45 |
| CCQYSWSNVMSVRKLSAWLH | 0.04 ± 0.34 |
| YVQTLSNTECNAIANMHERF | 0.641 ± 0.42 |
| IYISYIRRRFVGLFST | -0.938 ± 0.47 |
| TRKPEPINPQSIWSTVLQHE | 0.54 ± 0.48 |
| KHCDYHRWVEITSKRLFIGG | 0.134 ± 0.3 |
| ITLKCCMSTRNHMCHR | 3.75 ± 0.066 |
| PRMFIWMCDRDDVSMYQEFL | 0.48 ± 0.55 |
| STNIGWAMINLKRYPVLRDA | -0.18 ± 0.29 |
| SEGCCYRKGCVTTRDSALSG | inactive |
| HHSVGSYRINCLV | 3.39 ± 0.089 |
| FTLYYFLSC | 0.406 ± 0.56 |
| VPIMYNFGINDVGSVCDCTD | 7.259 ± 0.053 |
| YYFRFCREVIARLGMDMSSK | -0.341 ± 0.29 |
| WHSMKMCF | 0.115 ± 0.45 |
| HTKDSGSVARCVVSNLSCNT | 1.09 ± 0.48 |
| RIFNIYNGVQRRNFYYFYSC | 7.532 ± 0.05 |
| IGATLAPLTMSLNRSSDESS | 0.655 ± 0.64 |
| AASVSCNLQQKAKRVAFFLM | 0.726 ± 1.1 |
| RHVAYRSLRFSGCTP | 0.416 ± 0.76 |
| HIYNDSVRSFWIFQ | 6.606 ± 0.05 |
| CYHSKFAVAYQSRICWPWRD | 1.26 ± 0.67 |
| TVWSHCIEFFGHLRKLRSLL | 1.84 ± 0.5 |
| NNHKLAFTVVTPIEDHFRMR | 0.674 ± 0.46 |
| KSDSVLAGY | 5.039 ± 0.05 |

| Substance | amyloid nucleation score |
| --- | --- |
| FLDLSGMPGSVWFDIGVSCF | -0.716 ± 1 |
| RLDISSYSLFGINQVWA | 2.63 ± 0.17 |
| SVINIGRNMISI | -0.353 ± 0.67 |
| IGGVFALHCRMNIAPGSHTL | 2.38 ± 0.14 |
| FINGFGEDLKHIREVEVYLY | 4.07 ± 0.084 |
| RYTRSGLIDMFTNSSTDAHS | 0.115 ± 0.43 |
| TTWRMIFVVKRLHWFGLK | -0.445 ± 0.46 |
| PDDNMMVLGVSSADNLLIRL | 0.579 ± 0.66 |
| LSLSLMLGDIPSTIMRGCFR | inactive |
| NNVRYT | inactive |
| YVKISVLGSKIYNIS | 5.38 ± 0.093 |
| LHLWCLQSFYMCWKCPPILE | 2.57 ± 0.26 |
| RVNMWRYI | 0.295 ± 0.4 |
| VDSRSWTNLMWSRVAKWLMG | 0.155 ± 0.51 |
| HFKAYAFLDPFPLAPKL | 0.463 ± 0.64 |
| FALIRN | -0.368 ± 1.7 |
| WYPAANLRLVALIKGVSAVT | -2.23 ± 2.4 |
| TAAYRFNESVHVSNSRFMVH | 0.334 ± 0.42 |
| DTCYHINIGKTQSADQRDCT | 0.219 ± 0.25 |
| DSGCRTRVTLSRGFYRTFSS | 1.2 ± 0.6 |
| VCEISLN | 0.016 ± 1.2 |
| DDMVDVPFTMVGMWPYDSY | -0.381 ± 0.3 |
| IYQKGMVLGATRNGFSRCKG | -0.173 ± 0.3 |
| YSWLVYNHNSDPGGSVCWSC | 5.61 ± 0.065 |
| IYRGSNRLRRIGWEFNVALD | -0.819 ± 0.33 |

| Substance | amyloid nucleation score |
| --- | --- |
| NVRGSWVIMCYFTYVWMLGR | 0.017 ± 0.35 |
| LLRWLRTVVSGGCVSVNLVE | 0.034 ± 0.28 |
| VLFESIRWMSG | -0.142 ± 1.1 |
| VRVFTHSSVGREE | -0.177 ± 0.25 |
| CSVKCKTRCVYRFMESKWF | -0.021 ± 0.32 |
| RAGCPDVGRRLSCSRSVLPR | 0.789 ± 0.27 |
| TLSGVYTFCMFLVWVDSASG | 0.843 ± 0.62 |
| EPFETQEVMSLNMCSNQMVF | 0.333 ± 0.27 |
| IEYCIVSFQSMGE | 0.326 ± 0.46 |
| VRYEIAA | -1.06 ± 2.4 |
| SMFKGTIWRQHSLS | 0.618 ± 0.85 |
| PIFMCHSFFQAIICWLSSHL | inactive |
| FVTWH | inactive |
| VLCLHWWLRTILGPLLAYAN | inactive |
| GSSLTPCFEWMIIRCVEEDG | 1.05 ± 0.79 |
| RTVVQKKPVRCNMICNYWVF | 4.82 ± 0.064 |
| IGACFWRFIFVKLSTNL | -0.406 ± 0.36 |
| FRGYSGL | 1.46 ± 0.55 |
| SGTIYWLTDQSDFILLVMRD | -1.26 ± 0.47 |
| LIALLLAWDMYI | 0.18 ± 0.32 |
| REWIYLVVETPCYFVDDVMD | -0.71 ± 0.52 |
| RIKFDTKMRTVQCSCGSLHS | 2.78 ± 0.18 |
| NCSDQALDLQGSMSVQKIFR | -0.533 ± 0.88 |
| TSFGYLLVSRNWCNSWCIMS | 3.01 ± 0.079 |
| AVYDLCD | 0.816 ± 0.74 |

| Substance | amyloid nucleation score |
| --- | --- |
| SRIAMS | 0.368 ± 1 |
| HYYVLCFRVHLGQ | 0.176 ± 1.1 |
| VSSFWRELVPYGMVCRESSL | 0.178 ± 0.56 |
| LDVSTRQRLVGVD | -0.2 ± 0.61 |
| GKYKTFKNNITP | -0.416 ± 1.2 |
| WVLGGEFPYKRGGIAASLVL | -0.327 ± 0.84 |
| SFLWYIGFNSWRFCGRYTTL | 0.174 ± 0.5 |
| NVYAMCTITMNYSVVVTHSC | 3.35 ± 0.15 |
| LDSFTYKS | 1.99 ± 0.49 |
| FHSSGFVVYMLIVRGSPSMR | 0.218 ± 0.27 |
| TILVNKRR | -1.28 ± 0.65 |
| HYSHAWTVSRLMWNRDERGA | 1.59 ± 0.2 |
| SDESKMCRMGYYLPALAIAW | -0.173 ± 0.82 |
| NLSIRCLASFCPTGESWIRV | 0.971 ± 0.79 |
| KFRRW | -0.832 ± 0.56 |
| LLRVVKHCLCWNRYNDSDAG | 1.05 ± 0.34 |
| TTEFIGES | 1.25 ± 0.73 |
| VRVEKNCNFWLFSIVSCLPH | 8.49 ± 0.065 |
| VFGAFSESLLYSR | 0.51 ± 0.35 |

From the supplement of paper PMC12042874
